In patent US20220220204A1 (NANJING GENSCRIPT BIOTECH, published 2022):
Changes are numbered by the printed parent chain. Blank lines part the entries; values can stand above or below the binder they belong to.

Target: human PD-L1 (PD-L1 aAPC/CHO-K1 cells) (human, UniProt Q9NZQ7 19-290)
Test: cell-based or functional assay

human PD-L1 (PD-L1 aAPC/CHO-K1 cells), sequence (Q9NZQ7 19-290): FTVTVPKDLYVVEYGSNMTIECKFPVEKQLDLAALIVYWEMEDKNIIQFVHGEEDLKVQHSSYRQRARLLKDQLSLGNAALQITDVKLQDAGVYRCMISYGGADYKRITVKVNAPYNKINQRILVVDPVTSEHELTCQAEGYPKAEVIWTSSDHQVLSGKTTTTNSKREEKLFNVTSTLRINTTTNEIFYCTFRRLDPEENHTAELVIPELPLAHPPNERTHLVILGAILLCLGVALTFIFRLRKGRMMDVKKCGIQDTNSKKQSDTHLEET

Bottom (PD-1/PD-L1 blockade bioassay): 28900 | Log EC50 (PD-1/PD-L1 blockade bioassay): -0.323 | Top (PD-1/PD-L1 blockade bioassay): 113000
B1: PDL1HCv1 (antibody, human IgG1, kappa, N297A, V domains shown)
VH: EVQLVQSGAEVKKPGASVKVSCKASGYIFTGYGITWVRQAPGQGLEWMGEIFPRRVQTYYSEKFKGRVTMTTDTSTSTAYMELRSLRSDDTAVYYCARDYDPYFALDYWGQGTTVTVSS
VL: DIQMTQSPSSLSASVGDRVTITCRASQDVSTAVDWYQQKPGKAPKLLIYSASYRYTGVPDRFSGSGSGTDFTFTISSLQPEDIATYYCQQHYSIPFTFGQGTKLEIKR

Bottom (PD-1/PD-L1 blockade bioassay): 27800 | Log EC50 (PD-1/PD-L1 blockade bioassay): -0.111 | Top (PD-1/PD-L1 blockade bioassay): 110000
B2: PDL1HCv5 (antibody, human IgG1, kappa, N297A, V domains shown)
VH: B1 VH with T72A
VL: B1 VL
